Measured values from patent publication US20200263187A1, “A METHOD FOR EXPRESSION OF A PROKARYOTIC MEMBRANE PROTEIN IN AN EUKARYOTIC ORGANISM, PRODUCTS AND USES THEREOF” (Universidade Do Minho, priority 2017, published 2020).
Where two headings read alike, the source gives them in different places.

Legend:
[1] = test system: S. cerevisiae W303-1A jen1Δ ady2Δ cells; assay type: cell-based; conditions: for Kd (diffusion component) for lactate, non-mediated transport: cells grown in YNB lactic acid
Method: FIG. 4. Initial uptake rates of the radiolabelled 14C -Lactic acid at different concentrations. S. cerevisaie W303-1A jen1 Δady2Δ cells containing the plasmid pNJ-LctP-CJ-GFP and pNJ-LIdp-CJ-GFP were grown in YNB Lactic acid medium at pH 5.5 and 30° C., until mid-exponential growth phase.
In an embodiment, to confirm the successful heterologous expression of transporters in this system several studies were carried out as described in (Soares-Silva, et al. 2015): radiolabelled lactate uptake assays, growth assays in solid minimal medium with carboxylates or sugars as sole carbon source and fluorescence microscopy to detect the location of GFP fusion proteins.
The growth of the S. cerevisiae ady2Δjen1Δ strain expressing the NJ-LldP-CJ-GFP protein and control strains were evaluated in YNB media (supplemented according to the required auxotrophies) containing lactic acid (0.5%) pH 5.5 at 18° C. The S. cerevisiae ady2Δjen1Δ strains expressing the native LIdP (pLIdP), the empty vector (p416GPD) and the ScJen1p (pDS1) were used as controls.
As a control the IctP gene was cloned in the p416GPD vector. For this construct the IctP gene was amplified from S. aureus genomic DNA using the primers LcFWD and LcREV (Table 1) and inserted and ligated in the p416GPD vector using the restriction enzymes BamHI and EcoRI. […] The growth of S. cerevisiae strains was tested in YNB media (supplemented according to the required auxotrophies) containing lactic acid 0.5% (pH 5.5).

[2] = test system: S. cerevisiae W303-1A lactic acid-grown cells; conditions: cited from earlier work
[3] = test system: hxt null mutant EBY.4000 strain; conditions: HXT1 expressed in EBY.4000, Özcan and Johnston 1999, cited from earlier work

B1: ScJen1: S. cerevisiae lactate transporter Jen1, positive control (protein, UniProt P36035 2-616, looked up)
Carboxylic acid transporter …: SSSITDEKISGEQQQPAGRKLYYNTSTFAEPPLVDGEGNPINYEPEVYNPDHEKLYHNPSLPAQSIQDTRDDELLERVYSQDQGVEYEEDEEDKPNLSAASIKSYALTRFTSLLHIHEFSWENVNPIPELRKMTWQNWNYFFMGYFAWLSAAWAFFCVSVSVAPLAELYDRPTKDITWGLGLVLFVRSAGAVIFGLWTDKSSRKWPYITCLFLFVIAQLCTPWCDTYEKFLGVRWITGIAMGGIYGCASATAIEDAPVKARSFLSGLFFSAYAMGFIFAIIFYRAFGYFRDDGWKILFWFSIFLPILLIFWRLLWPETKYFTKVLKARKLILSDAVKANGGEPLPKANFKQKMVSMKRTVQKYWLLFAYLVVLLVGPNYLTHASQDLLPTMLRAQLGLSKDAVTVIVVVTNIGAICGGMIFGQFMEVTGRRLGLLIACTMGGCFTYPAFMLRSEKAILGAGFMLYFCVFGVWGILPIHLAELAPADARALVAGLSYQLGNLASAAASTIETQLADRYPLERDASGAVIKEDYAKVMAILTGSVFIFTFACVFVGHEKFHRDLSSPVMKKYINQVEEYEADGLSISDIVEQKTECASVKMIDSNVSKTYEEHIETV
modifications: GFP fusion
notes: S. cerevisiae lactate transporter Jen1, positive control
[1]; 14C-lactic acid uptake, pH 5.0, cells grown in YNB lactic acid pH 5.5, 30° C., mid-exponential phase
  Vmax for lactic acid uptake: 0.23±0.01 nmol s-1 mg-1 dry wt
[1]; 14C-lactic acid uptake, pH 5.0, cells grown in YNB lactic acid pH 5.5, 30° C., mid-exponential phase, read-out: Km for lactic acid uptake
  Km: 270 ± 40 µM
[1]; positive control in FIG. 4 legend, 14C-lactic acid
  Vmax for lactic acid uptake (unit not given): 0.23
[1]; positive control in FIG. 4 legend, 14C-lactic acid, read-out: Km value for lactic acid uptake (unit inferred)
  Km: 270 µM
[2]; Casal 1999, Paiva 2013, read-out: Km for lactate uptake
  Km: 290 µM
[2]; Casal 1999, Paiva 2013
  Vmax for lactate uptake: 0.40 nmol of lactic acid s1 mg of dry weight1

B2: HXT1: S. cerevisiae low affinity glucose transporter, positive control (protein, UniProt P32465 1-570, looked up)
Low-affinity glucose …: MNSTPDLISPQKSNSSNSYELESGRSKAMNTPEGKNESFHDNLSESQVQPAVAPPNTGKGVYVTVSICCVMVAFGGFIFGWDTGTISGFVAQTDFLRRFGMKHHDGSHYLSKVRTGLIVSIFNIGCAIGGIVLAKLGDMYGRRIGLIVVVVIYTIGIIIQIASINKWYQYFIGRIISGLGVGGITVLSPMLISEVAPSEMRGTLVSCYQVMITLGIFLGYCTNFGTKNYSNSVQWRVPLGLCFAWALFMIGGMMFVPESPRYLVEAGRIDEARASLAKVNKCPPDHPYIQYELETIEASVEEMRAAGTASWGELFTGKPAMFQRTMMGIMIQSLQQLTGDNYFFYYGTIVFQAVGLSDSFETSIVFGVVNFFSTCCSLYTVDRFGRRNCLMWGAVGMVCCYVVYASVGVTRLWPNGQDQPSSKGAGNCMIVFACFYIFCFATTWAPIAYVVISECFPLRVKSKCMSIASAANWIWGFLISFFTPFITGAINFYYGYVFMGCMVFAYFYVFFFVPETKGLSLEEVNDMYAEGVLPWKSASWVPVSKRGADYNADDLMHDDQPFYKSLFSRK
[3]
  Glucose concentration at which growth is restored: above 1%
[3]; read-out: Km of low-affinity glucose transport
  Km: 100000 µM

B3: pLIdP: Native E. coli LldP lactate permease cloned in p416GPD, control without eukaryotic termini (protein, UniProt P33231 1-551, looked up)
L-lactate permease: MNLWQQNYDPAGNIWLSSLIASLPILFFFFALIKLKLKGYVAASWTVAIALAVALLFYKMPVANALASVVYGFFYGLWPIAWIIIAAVFVYKISVKTGQFDIIRSSILSITPDQRLQMLIVGFCFGAFLEGAAGFGAPVAITAALLVGLGFKPLYAAGLCLIVNTAPVAFGAMGIPILVAGQVTGIDSFEIGQMVGRQLPFMTIIVLFWIMAIMDGWRGIKETWPAVVVAGGSFAIAQYLSSNFIGPELPDIISSLVSLLCLTLFLKRWQPVRVFRFGDLGASQVDMTLAHTGYTAGQVLRAWTPFLFLTATVTLWSIPPFKALFASGGALYEWVINIPVPYLDKLVARMPPVVSEATAYAAVFKFDWFSATGTAILFAALLSIVWLKMKPSDAISTFGSTLKELALPIYSIGMVLAFAFISNYSGLSSTLALALAHTGHAFTFFSPFLGWLGVFLTGSDTSSNALFAALQATAAQQIGVSDLLLVAANTTGGVTGKMISPQSIAIACAAVGLVGKESDLFRFTVKHSLIFTCIVGVITTLQAYVLTWMIP
[1]; 14C-lactic acid uptake
  Kd (diffusion component) for lactate, non-mediated transport: 47 ± 2.5 µM
[1]; 14C-lactic acid uptake, listed as Lldp
  Kd (diffusion component) for lactate, non-mediated transport: 43 ± 2 µM
[1]; lactic acid uptake, pH 5.0
  Transport mechanism for labelled lactic acid: non-mediated transport mechanism
